Legend:
[1] = target: T1, human PRLR on cells (endogenous on T47D, T47D#11, MCF7); introduced in HEK293/hPRLR/STAT5-Luc, 293/hPRLR, … (human, UniProt P16471 25-622); test: FACS on T47D cells
T1 construct: no tag is stated for these lines; also called prolactin receptor
T1 sequence: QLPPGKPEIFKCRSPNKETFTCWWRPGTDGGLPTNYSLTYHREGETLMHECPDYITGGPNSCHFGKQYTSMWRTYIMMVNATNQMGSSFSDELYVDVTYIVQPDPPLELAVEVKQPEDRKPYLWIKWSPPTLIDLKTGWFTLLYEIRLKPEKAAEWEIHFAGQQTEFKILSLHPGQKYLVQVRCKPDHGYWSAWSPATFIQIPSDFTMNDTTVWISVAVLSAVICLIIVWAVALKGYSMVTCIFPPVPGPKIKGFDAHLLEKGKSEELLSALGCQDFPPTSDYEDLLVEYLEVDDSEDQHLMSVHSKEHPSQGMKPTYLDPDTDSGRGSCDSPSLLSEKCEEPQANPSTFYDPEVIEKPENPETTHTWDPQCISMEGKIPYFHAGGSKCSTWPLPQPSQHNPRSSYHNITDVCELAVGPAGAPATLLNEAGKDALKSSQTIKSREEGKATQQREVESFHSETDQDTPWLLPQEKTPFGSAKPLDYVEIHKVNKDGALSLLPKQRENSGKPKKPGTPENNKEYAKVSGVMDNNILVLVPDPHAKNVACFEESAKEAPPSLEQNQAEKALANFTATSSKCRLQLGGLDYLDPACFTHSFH

[2] = target: T1, human PRLR on cells (endogenous on …); test: imaging of alexa488 intensity on T47D cells
Description: Briefly, 20,000 T47D cells were seeded in collagen coated 96 well plates. […] Cells were then incubated with alexa488 conjugated anti-hFc Fab secondary antibodies for 30 minutes on ice followed by two additional PBS washes. Antibodies were allowed to internalize for 1 h at 37° C. in internalization buffer (PBS+2% FBS) or remained at 4° C. Cells were fixed in 4% formaldehyde, nuclei were stained with DRAQ5 (Cell signaling), and images were acquired on the ImageXpress micro XL (Molecular Devices). Whole cell alexa488 intensity at 37° C. (Binding) and the alexa488 intensity in the intracellular vesicles at 37° C. (Internalization) were determined via Columbus image analysis software (PerkinElmer).

[3] = target: T1, human PRLR on cells (endogenous on …); test: cell-based or functional assay
[4] = target: T2, human PRLR construct with an HA tag on HEK293/hPRLR cells (human, UniProt P16471 25-622); test: FACS on HEK293/hPRLR cells
T2 sequence: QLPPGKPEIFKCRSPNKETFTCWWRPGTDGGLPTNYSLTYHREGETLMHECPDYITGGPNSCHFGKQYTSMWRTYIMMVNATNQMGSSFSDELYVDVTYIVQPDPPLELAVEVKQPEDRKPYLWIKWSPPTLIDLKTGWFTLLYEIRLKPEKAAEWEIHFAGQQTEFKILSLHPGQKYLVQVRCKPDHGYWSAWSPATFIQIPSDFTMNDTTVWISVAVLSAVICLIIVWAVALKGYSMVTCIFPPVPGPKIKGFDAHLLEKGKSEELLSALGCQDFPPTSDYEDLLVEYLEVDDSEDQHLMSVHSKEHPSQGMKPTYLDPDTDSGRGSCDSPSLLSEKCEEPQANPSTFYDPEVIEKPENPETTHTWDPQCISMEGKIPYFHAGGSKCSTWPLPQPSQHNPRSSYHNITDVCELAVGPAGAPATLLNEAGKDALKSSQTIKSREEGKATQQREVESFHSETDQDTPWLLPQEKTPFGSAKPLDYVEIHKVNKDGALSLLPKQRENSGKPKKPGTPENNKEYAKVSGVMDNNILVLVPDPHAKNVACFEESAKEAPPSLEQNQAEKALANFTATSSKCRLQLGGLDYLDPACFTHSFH

[5] = target: T3, mouse PRLR construct with an HA tag on HEK293/mPRLR cells (mouse, UniProt Q08501 20-608); test: FACS on HEK293/mPRLR cells
T3 construct: whole, on cells; stably transfected into HEK293
T3 sequence (looked up): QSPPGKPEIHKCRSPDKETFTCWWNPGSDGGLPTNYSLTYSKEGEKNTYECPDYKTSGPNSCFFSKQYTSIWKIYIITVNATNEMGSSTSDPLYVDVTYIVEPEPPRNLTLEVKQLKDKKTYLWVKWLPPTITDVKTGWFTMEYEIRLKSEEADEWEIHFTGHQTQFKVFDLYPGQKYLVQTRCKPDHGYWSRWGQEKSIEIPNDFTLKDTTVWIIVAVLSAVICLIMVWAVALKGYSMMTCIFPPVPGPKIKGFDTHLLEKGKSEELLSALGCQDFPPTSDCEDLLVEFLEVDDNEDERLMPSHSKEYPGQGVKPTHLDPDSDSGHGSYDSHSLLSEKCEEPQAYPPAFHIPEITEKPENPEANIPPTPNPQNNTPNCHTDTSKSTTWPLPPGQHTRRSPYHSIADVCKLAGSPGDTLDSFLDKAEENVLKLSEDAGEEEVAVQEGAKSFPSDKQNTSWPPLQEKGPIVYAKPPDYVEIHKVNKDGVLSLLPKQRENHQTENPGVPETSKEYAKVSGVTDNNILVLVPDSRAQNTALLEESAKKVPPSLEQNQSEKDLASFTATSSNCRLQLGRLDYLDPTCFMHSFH

B1: H1H6797P (antibody, human IgG1, V domains shown)
VH: EVQLVESGGGLVQPGGSLRLSCIVSGFTFSGSWMSWVRQLPGKGLEWVANIKEDGSDSYYVDSVEGRFTISRDNAKSSLYLQMNSLRVDDTAVYFCARARTVPLHYWGQGTLVTVSS
VL: DIQMTQSPSTLSASVGDRVTITCRASQSINIWLAWYQQKPGKAPKLLIYRASYLESGVPSSFAGGGSGTEFTLTISSLQPDDFGTYYCQHYNSYPFTFGQGTKLEIK
notes: human IgG1 Fc (H1H)
- FACS Cell Binding (Fold Above Background) [1]: 38 fold
- % Total Binding relative to Control I [2]: 151%
- % Internalization relative to Control I (T47D cells, imaging) [3]: 145%
- FACS Cell Binding (Fold Above Background) [4]: 1 fold
- FACS Cell Binding (Fold Above Background) [5]: 2 fold

B2: H1H6953N (antibody, human IgG1, V domains shown)
VH: EVQLLESGGGLVQPGGTLRLSCAASGFTFSAYAMSWVRQAPGKGLEWVSSINVRAGDTYYADSVKGRFTISRDNSKNTLFLLMNSLRAEDTAAYYCAKARYSSNWGFDFWGQGTLVTVSS
VL: DIVMTQSPDSLTVSLGARTTINCQSSQTILHSSNNHNYLAWYQQKPGLPPKLLIYWSSTRESGVPDRFSGSGSGTDFTLTISSLQAEDVAIYYCQQYSNTPYTFGQGTKLEIN
notes: also called H1M6953N
- FACS Cell Binding (Fold Above Background) [1]: 40 fold
- % Total Binding relative to Control I [2]: 164%
- % Internalization relative to Control I (T47D cells, imaging) [3]: 154%
- FACS Cell Binding (Fold Above Background) [4]: 37 fold
- FACS Cell Binding (Fold Above Background) [5]: 2 fold

B3: H1H6795P (antibody, human IgG1, V domains shown)
VH: QVQLVQSGAEVKKPGASVKVSCKASGYTFGTSGITWVRQAPGQGLEWMGWSSAYNGKTDYAQKFQDRVTMTTDTSTTTGYMEMRSLTSDDTAVYYCTTVVRRPFDFWGQGTLVTVSS
VL: DIQMTQSPSSLSASVGDRVTITCRASQDINNFLAWFQQKPGKAPKSLIYAASSLQSGVPSKFSGGGSGTDFALTISSLQPEDFATYYCQQYSSYPITFGQGTRLEIK
notes: human IgG1 Fc (H1H)
- FACS Cell Binding (Fold Above Background) [1]: 34 fold
- % Total Binding relative to Control I [2]: 123%
- % Internalization relative to Control I (T47D cells, imaging) [3]: 151%
- FACS Cell Binding (Fold Above Background) [4]: 1 fold
- FACS Cell Binding (Fold Above Background) [5]: 1 fold

B4: H1H6790P (antibody, human IgG1, V domains shown)
VH: EVQLVESGGGLVQPGGSLRLSCAASGFTFSSYAMTWVRQAPGKGLEWVSAITGSVGNTYYADSVKGRFTISRDNSKNTLYLQMNSLGAEDTAEYYCAKGAGMTTNWYLDLWGRGTLVTVSS
VL: DIVMTQSPDSLAVSLGARATINCKSSQSVLYSSNNQNYLTWYQQKPGQPPKLLIKWASTRESGVPDRFSGSGSGTDFTLTISSLQAEDVAVYYCQQYASSPYTFGQGTKLEIK
notes: human IgG1 Fc (H1H)
- FACS Cell Binding (Fold Above Background) [1]: 34 fold
- % Total Binding relative to Control I [2]: 123%
- % Internalization relative to Control I (T47D cells, imaging) [3]: 147%
- FACS Cell Binding (Fold Above Background) [4]: 37 fold
- FACS Cell Binding (Fold Above Background) [5]: 1 fold

B5: H1H6783P (antibody, human IgG1, V domains shown)
VH: QVQLQQSGPGLVKPSQTLSLTCAISGDSVSSNTFAWNWIRQSPSRGLEWLGRTYYRSKWYIDYAESVKSRITITPDTSKNQFSLQLNSVTPEDTALYYCAGGYTYAPRGAFDIWGQGTMVTVSS
VL: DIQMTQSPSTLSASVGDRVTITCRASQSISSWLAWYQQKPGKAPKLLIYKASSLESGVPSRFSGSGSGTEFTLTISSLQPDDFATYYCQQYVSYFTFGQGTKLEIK
notes: human IgG1 Fc (H1H)
- FACS Cell Binding (Fold Above Background) [1]: 38 fold
- % Total Binding relative to Control I [2]: 166%
- % Internalization relative to Control I (T47D cells, imaging) [3]: 161%
- FACS Cell Binding (Fold Above Background) [4]: 37 fold
- FACS Cell Binding (Fold Above Background) [5]: 1 fold

B6: H1H6967N (antibody, human IgG1, V domains shown)
VH: EVQLVESGGDLVHPGRSLRLSCAASGFPFDEYAMHWVRQVPGKGLEWVSGISWSNNNIGYADSVKGRFTISRDNAKNSLYLQMNSLRPEDTAFYYCAKSGIFDSWGQGTLVTVSS
VL: EIVMTQSPATLSVSPGERATLSCRASQSVSRDLAWYQQKPGQAPRLLIHGASTRATGIPARFSGSGSGAEFTLIISSLQSEDFAVYYCQQYNNWPLTFGGGTKVEIK
notes: also called H2M6967N
- FACS Cell Binding (Fold Above Background) [1]: 41 fold
- % Total Binding relative to Control I [2]: 159%
- % Internalization relative to Control I (T47D cells, imaging) [3]: 169%
- FACS Cell Binding (Fold Above Background) [4]: 38 fold
- FACS Cell Binding (Fold Above Background) [5]: 2 fold

B7: H1H6792P (antibody, human IgG1, V domains shown)
VH: EVQLVESGGGLVQPGRSLRLSCAASGFTLDDHAVHWVRQAPGKGLEWVSGISWNSVYIDYADSVKGRFTIFRDNAKNSLYLQMNSLRAEDTAFYYCARDIEGARDYWGQGTLVTVSS
VL: DIQMTQSPSSLSASVGDRVTITCRASQGIRNDLGWYQQKPGKAPKRLIYAASSLQSGVPSRFSGSGYGTEFTLTISSLQPEDFAPYYCLQHNSYPLTFGGGTKVEIK
notes: human IgG1 Fc (H1H)
- FACS Cell Binding (Fold Above Background) [1]: 37 fold
- % Total Binding relative to Control I [2]: 111%
- % Internalization relative to Control I (T47D cells, imaging) [3]: 156%
- FACS Cell Binding (Fold Above Background) [4]: 37 fold
- FACS Cell Binding (Fold Above Background) [5]: 3 fold

B8: H1H6807P (antibody, V domains shown)
VH: QVQLVESGGGVVQPGRSLRLSCAASGFTFSDYNMHWVRQAPGKGLEWVAVIWYDGSNKHYADSVKGRFTISRDNSKNTLYLQMNSLRAEDTAVYYCARDGFTIFGMVLDYWGQGTLVTVSS
VL: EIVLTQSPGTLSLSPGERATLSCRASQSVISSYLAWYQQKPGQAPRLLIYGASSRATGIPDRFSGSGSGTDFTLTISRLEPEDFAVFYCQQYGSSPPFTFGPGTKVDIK
notes: human IgG1 Fc (H1H)
- FACS Cell Binding (Fold Above Background) [1]: 34 fold
- % Total Binding relative to Control I [2]: 153%
- % Internalization relative to Control I (T47D cells, imaging) [3]: 147%
- FACS Cell Binding (Fold Above Background) [4]: 32 fold
- FACS Cell Binding (Fold Above Background) [5]: 2 fold

B9: H1H6781P (antibody, human IgG1, V domains shown)
VH: EVQLVESGGDLVQPGESLRLSCTASGFTFNSYEMNWVRQAPGKGLEWVSYISSSGGTKYYVDSVKGRFTISRDNAKKSLYLQMNSLRADDTALYYCARLNGVDVFDIWGQGTMVTVSS
VL: DIQMTQSPSSLSASVGDRVTITCRASQDIFNYLAWFQQKPGKVPELLISAASTLQSGVPSRFSGSGSGTYFTLTISSLQPEDIATYYCQRYNSAPLTFGGGTKVEIK
notes: human IgG1 Fc (H1H)
- FACS Cell Binding (Fold Above Background) [1]: 40 fold
- % Total Binding relative to Control I [2]: 166%
- % Internalization relative to Control I (T47D cells, imaging) [3]: 165%
- FACS Cell Binding (Fold Above Background) [4]: 37 fold
- FACS Cell Binding (Fold Above Background) [5]: 1 fold

B10: H1H6774P (antibody, human IgG1, V domains shown)
VH: EVQLVESGGGLAQPGGSLRLSCVASGFTFSTYWMSWVRQAPGKGLDWVGNIKQDGSEQNYVDSVRGRFTISRDNAKNSLFLQMNSLRAEDTGVYYCATLLTKGDYWGQGTLVTVSS
VL: DIQMTQSPSSLSASVGDSVTITCRASQDISNYLDWFQQKPGKAPKSLIYAASILQGGVPSRFSGSGYGTDFTLTISSLQPEDFATYYCRQYKTYPFTFGPGTKVDIK
notes: human IgG1 Fc (H1H)
- FACS Cell Binding (Fold Above Background) [1]: 39 fold
- % Total Binding relative to Control I [2]: 174%
- % Internalization relative to Control I (T47D cells, imaging) [3]: 162%
- FACS Cell Binding (Fold Above Background) [4]: 1 fold
- FACS Cell Binding (Fold Above Background) [5]: 1 fold

From patent publication US20180185504A1 (Regeneron, published 2018)
